Assay [1] concerns the target T1, cell-expressed CD40 (UniProt P25942 21-277, limits assumed).
T1 construct: whole, on cells; also called CD40 on HEK-Blue-CD40L cells; cell surface CD40
Put plainly: flow cytometry on HEK-Blue-CD40L cells preincubated with isotype control IgG1-LALA, CD40L-mouse IgG2a Fc titrated, DyLight 405 anti-mouse IgG [Detection of CD40L binding]. On the procedure:
(§1) a. Binding of anti CD40 antibodies of the invention to HEK-Blue-CD40L™ cells in the presence of CD40L was tested to verify whether the antibodies bind to the CD40L binding site of cell surface CD40. […] CD40L containing a mouse-IgG2a Fc-tag (AB Biosciences) was added at concentration ranging from 10000 to 9.8 ng/ml and cells were incubated for 60 minutes at 4° C. Anti-CD40 antibodies and CD40L bound to cell-expressed CD40 were detected using secondary DyLight 405-conjugated anti-mouse IgG and Alexa Fluor 488-conjugated anti-human IgG (Jackson Laboratories) and analyzed using FACSVerse instrument (BD).
For orientation: Flow cytometry measures light scatter and fluorescence of single cells or particles in a stream.

Assay [2] deals with T1, cell-expressed CD40. Put plainly: flow cytometry on HEK-Blue-CD40L cells preincubated with CP870,893 IgG1-LALA at EC90, CD40L-mouse IgG2a Fc titrated, DyLight 405 anti-mouse IgG [Detection of CD40L binding]. On the procedure: as §1

T1 sequence (P25942 21-277 limits assumed): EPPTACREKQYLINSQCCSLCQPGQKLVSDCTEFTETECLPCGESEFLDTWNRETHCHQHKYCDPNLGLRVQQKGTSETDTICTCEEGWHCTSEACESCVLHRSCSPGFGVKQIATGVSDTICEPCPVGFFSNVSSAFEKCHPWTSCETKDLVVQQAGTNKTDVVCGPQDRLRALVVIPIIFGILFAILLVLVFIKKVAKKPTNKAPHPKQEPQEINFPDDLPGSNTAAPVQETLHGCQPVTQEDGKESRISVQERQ

B1: CD40L containing a mouse-IgG2a Fc-tag (AB Biosciences) (Fc fusion, UniProt P29965 113-261, looked up)
chain: MQKGDQNPQIAAHVISEASSKTTSVLQWAEKGYYTMSNNLVTLENGKQLTVKRQGLYYIYAQVTFCSNREASSQAPFIASLCLKSPGRFERILLRAANTHSSAKPCGQQSIHLGGVFELQPGASVFVNVTDPSQVSHGTGFTSFGLLKL
notes: not shown: mouse IgG2a Fc tag
Regarding B1, the “EC50 (read off the curve)” value is about 0.2 µg/mL with cell-expressed CD40 [1] and about 0.4 µg/mL with cell-expressed CD40 [2].

By EC50 (read off the curve) is commonly meant the concentration giving half of the maximal effect. Low readings indicate an effect from little substance, high ones a need for much substance.

The record behind these values is US20240010741A1 (MAB DISCOVERY, published 2024).
